Laboratory results published in publication doi:10.1101/2025.04.28.650977.

What was measured:
Test in all cases: SPR
[1] = target: recombinant SOCS2 in complex with Elongins BC (UniProt O14508)
[2] = target: recombinant CIS in complex with Elongins BC (GST removed) (human) (UniProt Q9NSE2)
[3] = target: recombinant SOCS1 in complex with Elongins BC (UniProt O15524)

Substance: ARAP2-pY415 peptide (competitor phosphopeptide)
- IC50 [1]: 1660 nM
- IC50 [2]: 200 nM
- IC50 [3]: 50 nM
